Results reported in publication PMC6625358 (Structure (London, England : 1993), 2017).
Several values for one entry are separate records, joined by “and”; a condition that tells them apart may be missing. Equal entries are not always repeated.

B1: Pih1p 1–284 fragment (domain or fragment, Saccharomyces cerevisiae, UniProt P38768 1-284, looked up)
chain: MADFLLRPIKQRHRNEDKYVSVDAADGSVSKIEPIADFVIKTKLLSANGPEKLQDGRKVFINVCHSPLVPKPEVDFNARIVFPLIIQNEWEIPIITSCYRMDHDKKGQECYVWDCCINSDCSRWICDDIQLREILVEWCLESCEIRDSVVLCRDRIAFPKMKKKGAELPALEVLNDELHQDYKAKMHKIIEEEAGDPMSILRGRNDDGDDNNDPDDGTLPPLFPIENKISGAKIEEIDKNEIAHRNLKQAPAPAPAPHEQQEDVPEYEVKMKRFKGAAYKLRIL
B2: Nop58p_447 (truncated Nop58p, residues 1–447) (domain or fragment, Saccharomyces cerevisiae, UniProt Q12499 1-447, looked up)
chain: MAYVLTETSAGYALLKASDKKIYKSSSLIQDLDSSDKVLKEFKIAAFSKFNSAANALEEANSIIEGKVSSQLEKLLEEIKKDKKSTLIVSETKLANAINKLGLNFNVVSDAVTLDIYRAIKEYLPELLPGMSDNDLSKMSLGLAHSIGRHKLKFSADKVDVMIIQAIALLDDLDKELNTYAMRCKEWYGWHFPELAKIVTDSVAYARIILTMGIRSKASETDLSEILPEEIEERVKTAAEVSMGTEITQTDLDNINALAEQIVEFAAYREQLSNYLSARMKAIAPNLTQLVGELVGARLIAHSGSLISLAKSPASTIQILGAEKALFRALKTKHDTPKYGLLYHASLVGQATGKNKGKIARVLAAKAAVSLRYDALAEDRDDSGDIGLESRAKVENRLSQLEGRDLRTTPKVVREAKKVEMTEARAYNADADTAKAASDSESDSDDE
B3: Rvb1/2p complex (tag-free) (complex, Saccharomyces cerevisiae)
chain 1: MVAISEVKENPGVNSSNSGAVTRTAAHTHIKGLGLDESGVAKRVEGGFVGQIEAREACGVIVDLIKAKKMSGRAILLAGGPSTGKTALALAISQELGPKVPFCPLVGSELYSVEVKKTETLMENFRRAIGLRIKETKEVYEGEVTELTPEDAENPLGGYGKTISHVIVGLKSAKGTKTLRLDPTIYESIQREKVSIGDVIYIEANTGAVKRVGRSDAYATEFDLETEEYVPLPKGEVHKKKEIVQDVTLHDLDVANARPQGGQDVISMMGQLLKPKKTEITEKLRQEVNKVVAKYIDQGVAELIPGVLFIDEVNMLDIEIFTYLNKALESNIAPVVVLASNRGMTTVRGTEDVISPHGVPPDLIDRLLIVRTLPYDKDEIRTIIERRATVERLQVESSALDLLATMGTETSLRYALQLLAPCGILAQTSNRKEIVVNDVNEAKLLFLDAKRSTKILETSANYL
chain 2: MSIQTSDPNETSDLKSLSLIAAHSHITGLGLDENLQPRPTSEGMVGQLQARRAAGVILKMVQNGTIAGRAVLVAGPPSTGKTALAMGVSQSLGKDVPFTAIAGSEIFSLELSKTEALTQAFRKSIGIKIKEETELIEGEVVEIQIDRSITGGHKQGKLTIKTTDMETIYELGNKMIDGLTKEKVLAGDVISIDKASGKITKLGRSFARSRDYDAMGADTRFVQCPEGELQKRKTVVHTVSLHEIDVINSRTQGFLALFTGDTGEIRSEVRDQINTKVAEWKEEGKAEIVPGVLFIDEVHMLDIECFSFINRALEDEFAPIVMMATNRGVSKTRGTNYKSPHGLPLDLLDRSIIITTKSYNEQEIKTILSIRAQEEEVELSSDALDLLTKTGVETSLRYSSNLISVAQQIAMKRKNNTVEVEDVKRAYLLFLDSARSVKYVQENESQYIDDQGNVQISIAKSADPDAMDTTE
B4: DII-truncated Rvb2p (deleting residues 134–234) (natural protein, Saccharomyces cerevisiae, UniProt Q12464 1-471, looked up)
chain: MSIQTSDPNETSDLKSLSLIAAHSHITGLGLDENLQPRPTSEGMVGQLQARRAAGVILKMVQNGTIAGRAVLVAGPPSTGKTALAMGVSQSLGKDVPFTAIAGSEIFSLELSKTEALTQAFRKSIGIKIKEETVVHTVSLHEIDVINSRTQGFLALFTGDTGEIRSEVRDQINTKVAEWKEEGKAEIVPGVLFIDEVHMLDIECFSFINRALEDEFAPIVMMATNRGVSKTRGTNYKSPHGLPLDLLDRSIIITTKSYNEQEIKTILSIRAQEEEVELSSDALDLLTKTGVETSLRYSSNLISVAQQIAMKRKNNTVEVEDVKRAYLLFLDSARSVKYVQENESQYIDDQGNVQISIAKSADPDAMDTTE
B5: Pih1p-Tah1p complex (His-tagged Pih1p, non-tagged Tah1p) (complex, Saccharomyces cerevisiae)
chain 1: MADFLLRPIKQRHRNEDKYVSVDAADGSVSKIEPIADFVIKTKLLSANGPEKLQDGRKVFINVCHSPLVPKPEVDFNARIVFPLIIQNEWEIPIITSCYRMDHDKKGQECYVWDCCINSDCSRWICDDIQLREILVEWCLESCEIRDSVVLCRDRIAFPKMKKKGAELPALEVLNDELHQDYKAKMHKIIEEEAGDPMSILRGRNDDGDDNNDPDDGTLPPLFPIENKISGAKIEEIDKNEIAHRNLKQAPAPAPAPHEQQEDVPEYEVKMKRFKGAAYKLRILIENKAPNSKPDRFSPSYNFAENILYINGKLSIPLPRDIVVNAADIKIFHIRKERTLYIYI
chain 2: MSQFEKQKEQGNSLFKQGLYREAVHCYDQLITAQPQNPVGYSNKAMALIKLGEYTQAIQMCQQGLRYTSTAEHVAIRSKLQYRLELAQGAVGSVQIPVVEVDELPEGYDRS
B6: Pih1p (His-tagged) (natural protein, Saccharomyces cerevisiae, UniProt P38768 1-344, looked up)
chain: B5 chain 1

Assays:
[1] = target: B3; experiment: AUC
[2] = target: ScR2TP complex (Rvb1p, Rvb2p, His-Pih1p, Tah1p) (Saccharomyces cerevisiae, UniProt Q03940 1-463; Q12464 1-471; P38768 1-344; P25638 1-111); experiment: AUC
[3] = target: the molecule itself; experiment: AUC
[4] = target: T1, Rvb1p (non-tagged) (Saccharomyces cerevisiae, UniProt Q03940 1-463); experiment: pull-down
[5] = target: B3; experiment: ITC
[6] = target: B3; experiment: label-free quantitative mass spectrometry
[7] = target: Rvb2p (non-tagged) (Saccharomyces cerevisiae, UniProt Q12464 1-471); experiment: pull-down
[8] = target: T1, Rvb1p (non-tagged); experiment: cross-linking
[9] = target: B2; experiment: cross-linking

Binder: B1
- binding result [1]: binds

Binder: B2
- binding result [2]: binds

Binder: B3
- binding result [3]: binds

Binder: B4
- binding result [4]: binds

Binder: B5
- KD of the first of two serial sites (KD^1), apparent [5]: 155 nM
- KD of the second of two serial sites (KD^2), apparent [5]: 1.2 µM
- stoichiometry N [6]: 1.6 Pih1p per 3 Rvb1p and 3 Rvb2p and 0.5 Tah1p per 3 Rvb1p
- binding result [7]: binds

Binder: B6
- binding result [8]: binds
- binding result [9]: binds
